One molecule from PMC3477299 (ACS chemical biology, 2012) can be followed below.

Read-outs that look alike come from different tables or passages of the source.

Assay [1] has as its target T1, N-terminal His-tagged Human 4RON tau (human, UniProt P10636-6 1-383). As to the kind of experiment: ELISA.
Assay [2] has as its target T1, N-terminal His-tagged Human 4RON tau. As to the kind of experiment: ELISA. This is another data set of the same source.

B1: Hsp90β (HSP90AB1) (natural protein)
chain: not shown
Take B1: the IC50 in assay [1] came to 59 µM; in assay [2], 3 µM.
